Reference: patent EP4497755A1 (Asociación Centro de Investigación Cooperativa en …, dated 2025)

Assays:
[1] = target: T1, Wnt-11 peptide LLDLERGTRESA (human); assay: peptide dot blot
T1 construct: also called Wnt-11 amino acids L101-A112
T1 peptide: LLDLERGTRESA

[2] = target: T2, Wnt-11 peptide LLDLERGTRESAC (human); assay: peptide dot blot and peptide ELISA (Fig. 6a, b)
T2 construct: The C-terminal cysteine is not part of Wnt-11; also called wt101
T2 peptide: LLDLERGTRESAC

[3] = target: T3, Wnt-11 antibody epitope deletion mutant Wnt-11m (Wnt-11 delta 101-108, untagged) (human, UniProt O96014 25-354); assay: Ab1 staining and FACS sorting of transfected HEK 293 cells, western blot of Ab1high and Ab1low populations
T3 construct: whole, on cells; also called AE
T3 sequence (looked up): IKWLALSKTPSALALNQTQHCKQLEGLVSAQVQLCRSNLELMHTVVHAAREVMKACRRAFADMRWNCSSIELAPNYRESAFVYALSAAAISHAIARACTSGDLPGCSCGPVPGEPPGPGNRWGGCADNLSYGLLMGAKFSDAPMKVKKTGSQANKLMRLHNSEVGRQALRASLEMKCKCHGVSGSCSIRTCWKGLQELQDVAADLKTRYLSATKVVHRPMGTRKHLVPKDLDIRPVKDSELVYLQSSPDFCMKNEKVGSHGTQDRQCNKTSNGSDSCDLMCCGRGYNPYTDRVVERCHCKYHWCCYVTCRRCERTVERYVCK

[4] = target: T4, WNT7B peptide GQELRVGSREAAC; assay: peptide ELISA
T4 peptide: GQELRVGSREAAC

[5] = target: T5, WNT9A peptide RASLLKRGFKETAC; assay: peptide ELISA
T5 peptide: RASLLKRGFKETAC

[6] = target: T6, WNT10A peptide YESPIFSRGFRESAC; assay: peptide ELISA
T6 peptide: YESPIFSRGFRESAC

[7] = target: T7, WNT7A peptide GKELKVGSREAAC; assay: peptide ELISA
T7 peptide: GKELKVGSREAAC

[8] = target: T8, WNT3/3A peptide DSLAIFGPVLDKATRESAC; assay: peptide ELISA
T8 peptide: DSLAIFGPVLDKATRESAC

[9] = target: T9, human Wnt-11 (wild-type, untagged) (human, UniProt O96014 25-354); assay: immunofluorescence of non-permeabilized VCaP (Wnt-11 high) and C4-2B (Wnt-11 low) cells
T9 construct: whole, on cells; also called wild-type Wnt-11
T9 sequence (looked up): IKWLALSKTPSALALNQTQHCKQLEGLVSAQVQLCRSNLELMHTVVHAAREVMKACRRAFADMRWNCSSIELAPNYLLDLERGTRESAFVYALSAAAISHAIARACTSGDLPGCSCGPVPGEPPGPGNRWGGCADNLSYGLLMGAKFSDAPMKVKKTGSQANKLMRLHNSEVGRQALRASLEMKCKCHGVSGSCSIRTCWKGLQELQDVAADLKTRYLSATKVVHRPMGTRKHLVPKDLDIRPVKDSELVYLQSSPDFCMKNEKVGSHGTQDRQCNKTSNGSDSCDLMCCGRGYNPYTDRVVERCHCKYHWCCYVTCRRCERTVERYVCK

[10] = target: T10, Wnt-11 alanine replacement peptide P04 LLDAERGTRESA (human); assay: peptide ELISA, alanine replacement panel
T10 peptide: LLDAERGTRESA

[11] = target: T11, Wnt-11 alanine replacement peptide P06 LLDLEAGTRESA (human); assay: peptide ELISA, alanine replacement panel
T11 peptide: LLDLEAGTRESA

[12] = target: T12, Wnt-11 alanine replacement peptide P01 ALDLERGTRESA (human); assay: peptide ELISA, alanine replacement panel
T12 peptide: ALDLERGTRESA

[13] = target: T13, Wnt-11 alanine replacement peptide P07 LLDLERATRESA (human); assay: peptide ELISA, alanine replacement panel
T13 peptide: LLDLERATRESA

[14] = target: T14, Wnt-11 alanine replacement peptide P11 LLDLERGTREAA (human); assay: peptide ELISA, alanine replacement panel
T14 peptide: LLDLERGTREAA

[15] = target: T15, Wnt-11 alanine replacement peptide P10 LLDLERGTRASA (human); assay: peptide ELISA, alanine replacement panel
T15 peptide: LLDLERGTRASA

[16] = target: T16, Wnt-11 alanine replacement peptide P03 LLALERGTRESA (human); assay: peptide ELISA, alanine replacement panel
T16 peptide: LLALERGTRESA

[17] = target: T17, Wnt-11 alanine replacement peptide P02 LADLERGTRESA (human); assay: peptide ELISA, alanine replacement panel
T17 peptide: LADLERGTRESA

[18] = target: T18, Wnt-11 alanine replacement peptide P08 LLDLERGARESA (human); assay: peptide ELISA, alanine replacement panel
T18 peptide: LLDLERGARESA

[19] = target: T19, Wnt-11 alanine replacement peptide P05 LLDLARGTRESA (human); assay: peptide ELISA, alanine replacement panel
T19 peptide: LLDLARGTRESA

[20] = target: T20, Wnt-11 alanine replacement peptide P09 LLDLERGTAESA (human); assay: peptide ELISA, alanine replacement panel
T20 peptide: LLDLERGTAESA

[21] = target: T1, Wnt-11 peptide LLDLERGTRESA; assay: peptide ELISA
[22] = target: VSV-G-tagged full-length LRP6 (UniProt O75581); assay: immunofluorescence colocalization in transfected cells
VSV-G-tagged full-length LRP6, sequence (O75581 other isoform, or with tags, fused parts or gaps limits assumed): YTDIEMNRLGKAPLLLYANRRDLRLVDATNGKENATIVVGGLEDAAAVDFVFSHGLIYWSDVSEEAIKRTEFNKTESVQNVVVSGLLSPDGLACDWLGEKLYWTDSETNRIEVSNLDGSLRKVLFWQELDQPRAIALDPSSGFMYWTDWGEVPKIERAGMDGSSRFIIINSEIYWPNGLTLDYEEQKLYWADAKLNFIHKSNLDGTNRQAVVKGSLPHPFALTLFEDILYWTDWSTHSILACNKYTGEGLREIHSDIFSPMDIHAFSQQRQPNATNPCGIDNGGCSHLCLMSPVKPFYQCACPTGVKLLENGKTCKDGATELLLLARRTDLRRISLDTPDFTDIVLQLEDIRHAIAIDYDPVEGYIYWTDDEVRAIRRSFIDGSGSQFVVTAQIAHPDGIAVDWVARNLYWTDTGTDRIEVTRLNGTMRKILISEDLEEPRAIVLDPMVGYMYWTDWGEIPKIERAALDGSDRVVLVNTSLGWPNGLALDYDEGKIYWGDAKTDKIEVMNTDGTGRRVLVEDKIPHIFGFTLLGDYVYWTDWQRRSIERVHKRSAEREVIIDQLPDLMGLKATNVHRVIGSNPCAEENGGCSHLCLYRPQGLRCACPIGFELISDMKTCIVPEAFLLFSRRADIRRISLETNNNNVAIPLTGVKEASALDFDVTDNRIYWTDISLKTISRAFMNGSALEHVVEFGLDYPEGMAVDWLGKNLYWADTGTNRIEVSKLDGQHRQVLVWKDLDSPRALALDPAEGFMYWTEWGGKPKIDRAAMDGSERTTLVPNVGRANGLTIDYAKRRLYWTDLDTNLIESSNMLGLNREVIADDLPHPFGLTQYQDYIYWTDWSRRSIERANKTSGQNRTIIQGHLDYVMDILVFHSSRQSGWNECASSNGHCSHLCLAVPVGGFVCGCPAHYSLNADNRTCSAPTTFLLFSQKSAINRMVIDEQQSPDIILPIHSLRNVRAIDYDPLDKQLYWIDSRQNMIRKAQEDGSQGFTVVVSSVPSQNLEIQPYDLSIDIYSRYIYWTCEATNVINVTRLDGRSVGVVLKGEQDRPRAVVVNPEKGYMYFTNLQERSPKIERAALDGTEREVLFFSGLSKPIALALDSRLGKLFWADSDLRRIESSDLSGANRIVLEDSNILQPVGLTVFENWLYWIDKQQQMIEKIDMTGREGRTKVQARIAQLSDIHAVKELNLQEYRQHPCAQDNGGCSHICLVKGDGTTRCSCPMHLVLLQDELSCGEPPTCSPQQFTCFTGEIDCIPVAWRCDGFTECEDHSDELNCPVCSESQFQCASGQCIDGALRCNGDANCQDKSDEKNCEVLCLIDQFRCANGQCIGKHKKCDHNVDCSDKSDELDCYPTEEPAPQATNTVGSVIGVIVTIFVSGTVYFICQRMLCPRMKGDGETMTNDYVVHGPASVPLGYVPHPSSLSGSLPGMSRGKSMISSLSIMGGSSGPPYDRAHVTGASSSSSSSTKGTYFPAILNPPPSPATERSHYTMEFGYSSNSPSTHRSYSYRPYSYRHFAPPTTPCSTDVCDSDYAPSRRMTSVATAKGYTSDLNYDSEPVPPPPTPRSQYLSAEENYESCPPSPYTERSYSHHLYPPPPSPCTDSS

[23] = target: T2, Wnt-11 peptide LLDLERGTRESAC; assay: peptide dot blot (Fig. 6a)

B1: anti-Wnt-11 rat monoclonal antibody Ab1 (E8) (antibody, rat IgG2a, V domains shown)
VH: EVELVESGGGLVQPGRSLKLSCAASGFTFSDYGMAWVRQTPTKGLEWVASITSGGGNPYYRDSVKGRFTISRDNAKNTQHLQMDSLRSEDTATYYCARHEYYGNYMTCFDYWGQGVMVTVSS
VL: AIVLNQSPSSIVASQGEKVTITCRASLSISSNYLHWYQQKPGAFPKLVIYSTSYRASGVPSRFSGSGSGTSYSFTISRVEAEDVATYYCQQGSSDPLTFGSGTKLEIK
notes: also called anti-Wnt-11-Ab1; Wnt-11 antibody E8
binding result [1]: binds | binding result [2]: binds | binding result [3]: no binding (tested: Ab1 at 30 µg/ml) | binding result [4]: no binding | binding result [5]: no binding | binding result [6]: no binding | binding result [7]: no binding | binding result [8]: no binding | binding result [9]: binds | binding result [10]: no binding | binding result [11]: no binding | binding result [12]: no binding | binding result [13]: binds | binding result [14]: binds | binding result [15]: binds | binding result [16]: no binding | binding result [17]: no binding | binding result [18]: binds | binding result [19]: no binding | binding result [20]: binds

B2: chimeric anti-Wnt-11 antibody E8h4hk (E8 IgG4k chimeric antibody) (antibody, V domains shown)
VH: B1 VH
VL: B1 VL
notes: also called chimeric E8 (hIgG4kappa)
binding result [21]: binds

B3: Wnt-11 antibody epitope deletion mutant Wnt-11m (Wnt-11 delta 101-108, untagged) (ligand, human, UniProt O96014 25-354, looked up)
chain: T3 sequence (looked up)
colocalization with LRP6, Pearson [22]: 0.4 | colocalization with LRP6, Spearman [22]: 0.46

B4: human Wnt-11 (wild-type, untagged) (ligand, UniProt O96014 25-354, looked up)
chain: T9 sequence (looked up)
colocalization with LRP6, Pearson [22]: 0.6 | colocalization with LRP6, Spearman [22]: 0.67

B5: anti-Wnt-11 rat monoclonal antibody Ab2 (F10) (antibody, rat IgG2c, V domains shown)
VH: EVQLVESGGGLVQPGRSLKLSCAASGFTFSNYGMAWVRQAPTKGLEWVASINYDGRNTYYRDSVKGRFTISRDNAKSTVYLQMDSLRSEDTATYYCARPQDGVIDAWGQGDSVTVSS
VL: DVVMTQTPVSLPVSLGGQASISCRSSQSLVHSNGNTYLHWYLQKPGQFPQLLIYRVSNRFSGVPDRFSGSGSGTDFTLKISRVESEDLGVYYCLQGTHLPPTFGGGTKLELK
notes: also called anti-Wnt-11-F10; Wnt-11 antibody F10
binding result [1]: binds | binding result [23]: binds
